Values of other authors, collected in paper PMC2679154.

Biological target: IGF-IR (Homo sapiens) (UniProt P08069)
UniProt P08069, sequence (P08069 31-736, chain 1 of 2): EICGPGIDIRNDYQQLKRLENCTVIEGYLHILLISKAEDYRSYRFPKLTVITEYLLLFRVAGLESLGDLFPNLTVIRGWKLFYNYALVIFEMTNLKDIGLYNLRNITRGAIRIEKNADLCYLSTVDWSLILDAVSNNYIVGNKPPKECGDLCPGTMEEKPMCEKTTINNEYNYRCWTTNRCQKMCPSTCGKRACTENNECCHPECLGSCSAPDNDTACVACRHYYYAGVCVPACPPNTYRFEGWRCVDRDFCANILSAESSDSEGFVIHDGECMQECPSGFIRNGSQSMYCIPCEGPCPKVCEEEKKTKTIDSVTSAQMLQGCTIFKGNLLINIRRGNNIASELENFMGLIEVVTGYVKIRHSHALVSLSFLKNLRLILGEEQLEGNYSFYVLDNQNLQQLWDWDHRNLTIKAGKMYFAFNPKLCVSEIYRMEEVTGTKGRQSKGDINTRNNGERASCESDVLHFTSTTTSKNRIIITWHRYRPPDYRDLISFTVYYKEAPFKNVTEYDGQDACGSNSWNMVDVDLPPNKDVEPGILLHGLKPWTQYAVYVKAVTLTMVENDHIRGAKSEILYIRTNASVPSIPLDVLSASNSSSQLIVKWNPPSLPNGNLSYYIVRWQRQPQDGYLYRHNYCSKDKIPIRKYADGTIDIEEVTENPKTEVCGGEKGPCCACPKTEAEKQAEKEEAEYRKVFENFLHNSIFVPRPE
UniProt P08069, sequence (P08069 741-935, chain 2 of 2): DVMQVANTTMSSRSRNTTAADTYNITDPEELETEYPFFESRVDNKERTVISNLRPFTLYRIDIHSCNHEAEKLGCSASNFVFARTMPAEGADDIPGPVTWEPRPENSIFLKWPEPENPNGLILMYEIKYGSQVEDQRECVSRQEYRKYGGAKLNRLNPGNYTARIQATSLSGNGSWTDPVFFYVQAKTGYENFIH

- Kd: 100 nM
Substance: insulin (from UniProt P01308)
